The record followed here is paper PMC10485164, “Sequence-specific targeting of Caenorhabditis elegans C-Ala to the D-loop of tRNAAla”.

One series addresses T1, Ce-C-Alac K938A (Caenorhabditis elegans, UniProt O01541 757-968, K938A).
T1 sequence: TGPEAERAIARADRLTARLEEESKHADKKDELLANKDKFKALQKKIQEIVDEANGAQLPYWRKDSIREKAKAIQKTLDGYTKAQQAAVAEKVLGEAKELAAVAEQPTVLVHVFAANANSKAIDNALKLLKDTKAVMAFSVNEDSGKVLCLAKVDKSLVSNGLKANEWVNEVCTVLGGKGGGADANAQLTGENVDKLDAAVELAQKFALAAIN
Nature of the series: EMSA; 5 mM Mg2+; EMSA: 20 mM Hepes pH 7.5, 20 mM KCl, 5 mM MgCl2, 2 mM DTT, 10 min on ice, 0.1 uM ligand; 5% native PAGE in 0.5x TBE at 4 C; protein 0.125-32 uM. Particulars: protein: recombinant; tags: His6 (C-terminal, pET21b); label: 5'-32P; tRNA cloverleaf. Background: In EMSA bound probe runs differently from free probe, usually more slowly.

In the next series the target is T2, Ce-C-Alac K934A (Caenorhabditis elegans, UniProt O01541 757-968, K934A).
T2 sequence: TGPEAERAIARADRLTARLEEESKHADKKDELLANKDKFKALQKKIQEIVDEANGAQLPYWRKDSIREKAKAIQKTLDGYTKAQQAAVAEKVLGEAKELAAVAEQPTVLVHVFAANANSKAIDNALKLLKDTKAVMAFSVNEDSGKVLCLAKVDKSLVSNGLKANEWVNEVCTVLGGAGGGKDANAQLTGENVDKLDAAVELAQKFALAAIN
Described as above. The conditions noted are these: protein: recombinant; tags: His6 (C-terminal, pET21b); label: 5'-32P; tRNA cloverleaf.

B1: CetRNAnAla (structured_RNA)
RNA: GGGGGUAUAGCUCAGUGGUAGAGCGCUCCCUUAGCAUGGGAGAGGGCUGGGGUUCAAUUCCCCAUACCUCCACCA
Take B1: the binding signal is 3 fold lower affinity than WT Ce-C-Alac in the series with Ce-C-Alac K938A and 11 fold lower affinity than WT Ce-C-Alac with Ce-C-Alac K934A.
